US20200164029A1 (ACCELERON PHARMA, published 2020)

Experiments:
VEGF = target: T1, VEGF (human, UniProt P15692-4 27-191, limits assumed); experiment: SPR
T1 construct: also called vascular endothelial growth factor

human TGF-β3 = target: T2, human TGF-β3 (human, UniProt P10600 301-412); experiment: refers back to Example 3 (SPR)
T2 construct: also called hTGF-β3
T2 sequence (looked up): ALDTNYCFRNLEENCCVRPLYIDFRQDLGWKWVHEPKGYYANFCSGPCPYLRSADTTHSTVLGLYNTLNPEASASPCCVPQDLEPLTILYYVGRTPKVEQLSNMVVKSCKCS

human TGF-β2 = target: T3, human TGF-β2 (human, UniProt P61812 303-414); experiment: refers back to Example 3 (SPR)
T3 construct: also called hTGF-β2
T3 sequence (looked up): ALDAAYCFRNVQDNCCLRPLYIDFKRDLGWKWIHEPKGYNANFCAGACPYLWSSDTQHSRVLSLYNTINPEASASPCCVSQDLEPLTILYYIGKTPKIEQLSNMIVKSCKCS

human TGF-β1 = target: T4, human TGF-β1 (human, UniProt P01137 279-390); experiment: refers back to Example 3 (SPR)
T4 construct: also called hTGF-β1
T4 sequence (P01137 279-390 limits assumed): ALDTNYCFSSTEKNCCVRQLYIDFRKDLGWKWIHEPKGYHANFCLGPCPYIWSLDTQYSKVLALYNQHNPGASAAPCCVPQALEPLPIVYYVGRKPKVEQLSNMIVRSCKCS

Measured: binding result

T1 sequence (P15692 other isoform, or with tags, fused parts or gaps limits assumed): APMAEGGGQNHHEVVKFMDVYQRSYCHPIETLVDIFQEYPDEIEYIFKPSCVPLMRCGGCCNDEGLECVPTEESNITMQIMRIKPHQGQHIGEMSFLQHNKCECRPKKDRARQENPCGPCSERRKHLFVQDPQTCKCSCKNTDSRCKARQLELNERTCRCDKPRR

B1: mENG(27-581)-mFc (Fc fusion)
chain: GGERVGCDLQPVDPTRGEVTFTTSQVSEGCVAQAANAVREVHVLFLDFPGMLSHLELTLQASKQNGTETQEVFLVLVSNKNVFVKFQAPEIPLHLAYDSSLVIFQGQPRVNITVLPSLTSRKQILDWAATKGAITSIAALDDPQSIVLQLGQDPKAPFLCLPEAHKDMGATLEWQPRAQTPVQSCRLEGVSGHKEAYILRILPGSEAGPRTVTVMMELSCTSGDAILILHGPPYVSWFIDINHSMQILTTGEYSVKIFPGSKVKGVELPDTPQGLIAEARKLNASIVTSFVELPLVSNVSLRASSCGGVFQTTPAPVVTTPPKDTCSPVLLMSLIQPKCGNQVMTLALNKKHVQTLQCTITGLTFWDSSCQAEDTDDHLVLSSAYSSCGMKVTAHVVSNEVIISFPSGSPPLRKKVQCIDMDSLSFQLGLYLSPHFLQASNTIELGQQAFVQVSVSPLTSEVTVQLDSCHLDLGPEGDMVELIQSRTAKGSCVTLLSPSPEGDPRFSFLLRVYMVPTPTAGTLSCNLALRPSTLSQEVYKTVSMRLNIVSPDLSGKGTGGGEPRVPITQNPCPPLKECPPCAAPDLLGGPSVFIFPPKIKDVLMISLSPMVTCVVVDVSEDDPDVQISWFVNNVEVHTAQTQTHREDYNSTLRVVSALPIQHQDWMSGKEFKCKVNNRALPSPIEKTISKPRGPVRAPQVYVLPPPAEEMTKKEFSLTCMITGFLPAEIAVDWTSNGRTEQNYKNTATVLDSDGSYFMYSKLRVQKSTWERGSLFACSVVHEGLHNHLTTKTISRSLGK
notes: also called mu-Endoglin; soluble murine ENG fusion protein
no binding: VEGF | human TGF-β3 | human TGF-β2 | human TGF-β1
